No end group written: not given here.
Target: T1, scavenger receptor class BI (SR-BI) (UniProt Q8WTV0 1-552, limits assumed)
T1 sequence (looked up): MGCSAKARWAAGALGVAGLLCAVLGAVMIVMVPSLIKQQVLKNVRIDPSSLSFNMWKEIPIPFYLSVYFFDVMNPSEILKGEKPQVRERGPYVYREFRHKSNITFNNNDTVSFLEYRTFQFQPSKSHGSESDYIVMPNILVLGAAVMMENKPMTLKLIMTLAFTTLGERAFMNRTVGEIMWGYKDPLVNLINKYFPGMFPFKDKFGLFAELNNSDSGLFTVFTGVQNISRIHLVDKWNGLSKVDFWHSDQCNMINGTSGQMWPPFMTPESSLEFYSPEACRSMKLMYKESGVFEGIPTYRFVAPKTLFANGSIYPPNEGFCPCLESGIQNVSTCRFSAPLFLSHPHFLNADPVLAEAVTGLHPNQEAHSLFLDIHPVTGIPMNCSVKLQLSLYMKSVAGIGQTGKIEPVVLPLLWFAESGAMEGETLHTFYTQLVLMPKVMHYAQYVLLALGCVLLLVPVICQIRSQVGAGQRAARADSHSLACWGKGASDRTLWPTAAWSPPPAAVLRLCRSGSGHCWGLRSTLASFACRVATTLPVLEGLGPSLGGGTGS
Assay: cell-based or functional assay

B1: DIO labeled HDL nanoparticles (synthetic HDL of 22 A peptide and lipids) (other)
peptide: PVLDLFRELLNELLEALKQKLK
modifications: also: sHDL lipid nanoparticle with lipids, DIO tracer label in particle, acetate salt
With B1 the “blocking of uptake of DIO labeled HDL nanoparticles by 10 fold excess of HDL (fluorescence microscopy)” value was over 90%.
